Experimental data taken from article PMC3478540 (Diabetes, 2012).

Molecular target: GRP78 in membrane fractions of mouse liver (mouse (endogenous in liver), UniProt P20029 20-655)
Test: radioligand binding

GRP78 in membrane fractions of mouse liver, sequence (P20029 20-655): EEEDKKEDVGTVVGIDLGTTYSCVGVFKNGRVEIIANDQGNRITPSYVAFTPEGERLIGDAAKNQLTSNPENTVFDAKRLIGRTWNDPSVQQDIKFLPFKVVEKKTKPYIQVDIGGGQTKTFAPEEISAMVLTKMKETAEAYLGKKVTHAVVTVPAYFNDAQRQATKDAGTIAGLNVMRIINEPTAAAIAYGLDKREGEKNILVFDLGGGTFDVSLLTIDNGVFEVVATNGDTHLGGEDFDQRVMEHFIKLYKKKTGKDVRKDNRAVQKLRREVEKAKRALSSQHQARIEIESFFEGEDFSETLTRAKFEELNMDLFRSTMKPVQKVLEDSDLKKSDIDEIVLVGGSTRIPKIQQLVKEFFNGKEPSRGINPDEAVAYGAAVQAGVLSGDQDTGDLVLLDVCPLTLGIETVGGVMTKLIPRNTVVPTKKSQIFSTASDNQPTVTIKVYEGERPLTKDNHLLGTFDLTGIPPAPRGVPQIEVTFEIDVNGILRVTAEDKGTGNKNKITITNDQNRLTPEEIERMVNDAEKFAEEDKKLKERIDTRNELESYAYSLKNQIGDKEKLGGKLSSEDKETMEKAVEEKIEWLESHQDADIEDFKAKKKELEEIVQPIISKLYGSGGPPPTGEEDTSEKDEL

Kd: 22.2 nM
B1: ^125I-vaspin (iodinated rhVaspin) (natural protein, human, UniProt Q8IW75 21-414, looked up)
chain: LKPSFSPRNYKALSEVQGWKQRMAAKELARQNMDLGFKLLKKLAFYNPGRNIFLSPLSISTAFSMLCLGAQDSTLDEIKQGFNFRKMPEKDLHEGFHYIIHELTQKTQDLKLSIGNTLFIDQRLQPQRKFLEDAKNFYSAETILTNFQNLEMAQKQINDFISQKTHGKINNLIENIDPGTVMLLANYIFFRARWKHEFDPNVTKEEDFFLEKNSSVKVPMMFRSGIYQVGYDDKLSCTILEIPYQKNITAIFILPDEGKLKHLEKGLQVDTFSRWKTLLSRRVVDVSVPRLHMTGTFDLKKTLSYIGVSKIFEEHGDLTKIAPHRSLKVGEAVHKAELKMDERGTEGAAGTGAQTLPMETPLVVKIDKPYLLLIYSEKIPSVLFLGKIVNPIGK
modifications: 125I-iodinated, residues not stated
